Laboratory results taken from PMC9602519, “A Novel Cryptic Clostridial Peptide That Kills Bacteria by a Cell Membrane Permeabilization Mechanism” (Microbiology Spectrum, 2022).

Molecular target: the molecule itself
Test: AUC; sedimentation velocity, 50,000 rpm, 20°C, absorbance at 230 nm; 10 mM sodium bicarbonate, 5 mM sodium phosphate (pH 6.8), 100 mM NaCl; with 20 mM DPC detergent (membrane mimic); c(s) distribution in SEDFIT

B1: Intestinalin (P30) (peptide)
peptide: KNLLRRIRRKLRNKFSRSDVIKTPKIVEVN
notes: N-terminal region of the LysC autolysin of Clostridium intestinale URNW
stoichiometry N: 3
